Measurements taken from publication PMC9708914 (iScience, 2022).

B1: Thermus thermophilus MgtE transmembrane (TM) domain (TtMgtE 268-450) (domain or fragment, UniProt Q5SMG8 268-450, looked up)
chain: VPDLVYSEAGPVALWLARVRWLVILILTGMVTSSILQGFESVLEAVTALAFYVPVLLGTGGNTGNQSATLIIRALATRDLDLRDWRRVFLKEMGVGLLLGLTLSFLLVGKVYWDGHPLLLPVVGVSLVLIVFFANLVGAMLPFLLRRLGVDPALVSNPLVATLSDVTGLLIYLSVARLLLEAV
B2: MgtE ΔN T336C/L421C (TtMgtE 130-450, T336C/L421C) (domain or fragment, Thermus thermophilus, UniProt Q5SMG8 130-450, looked up)
chain: EEDEAGGLMTPEYVAVREGMTVEEVLRFLRRAAPDAETIYYIYVVDEKGRLKGVLSLRDLIVADPRTRVAEIMNPKVVYVRTDTDQEEVARLMADYDFTVLPVVDEEGRLVGIVTVDDVLDVLEAEATEDIHKLGAVDVPDLVYSEAGPVALWLARVRWLVILILTGMVTSSILQGFESVLEAVTALAFYVPVLLGTGGNTGNQSACLIIRALATRDLDLRDWRRVFLKEMGVGLLLGLTLSFLLVGKVYWDGHPLLLPVVGVSLVLIVFFANLVGAMLPFLLRRLGVDPACVSNPLVATLSDVTGLLIYLSVARLLLEAV

Key:
crystal structure = molecular target: the molecule itself; experiment: crystal structure
cross-linking = molecular target: the molecule itself; experiment: cross-linking

| Protein | binding result (crystal structure) | stoichiometry N (cross-linking) |
| --- | --- | --- |
| B1 | binds |  |
| B2 |  | 2 |
